Assay: soluble on expression in E. coli; label from the status in PepcDB or PDB records

Sequence | soluble on expression in E. coli
GPGSTGRSQATRTQERQEGRKKDMESKGTPTTRHPHVLTTARRKKETLWHGTPKRQTNPTTAVASKSEVVATSPHDGGSGRLPEDSQEATDEVVTLSSASSPLSRTLDGSCMPFAPPLGSDMAVTVACGPVNRTSLLSTEEKTAHAILGQADAMTDRRRSEEMLYYLEAARALREVTSGVEAREQCLRDEIERQSTLYSAKKLDLAEKQKVYERLHESTLRLTRNVRRIDSENDRIRDRLTKLQMTIEKMESRKLPRHIQQDVDRVVRCESVPSWQGANQRVGGCEAIVPMRSVGSVAKNTLMTELEMYTRKLRSAEVRHDKLIKELQLAVARRKGRAAAYNSFGASLSFSGYSGMGNRDGSFLTDSVGESIAIQQLERMIDDSLIRCK | not soluble
MSKSALHAFIDRARADEDFRSKLAHLDPNQIIEFAGQHGFLFSDEIKGRFINRWSGVYFCPQAIEVGQLCPALVPDGYKNLIHYAQSTCSSSNLSEEERDFRSGIKY | not soluble
MTRFAEKVAIITGSSNGIGRATAVLFAREGAKVTITGRHAERLEETRQQILAAGVSEQNVNSVVADVTTDAGQDEILSTTLGKFGKLDILVNNAGAAIPDSQSKTGTAQSIESYDATLNLNLRSVIALTKKAVPHLSSTKGEIVNISSIASGLHATPDFPYYSIAKAAIDQYTRNTAIDLIQHGIRVNSISPGLVATGFGSAMGMPEETSKKFYSTMATMKECVPAGVMGQPQDIAEVIAFLADRKTSSYIIGHQLVVDGGSSLIMGLHCQDFAKLLH | soluble
LAWKRMEEHDWTCDCIRCREAGHSDDVAENIELDVMTYEACGGMEHFISFEDFENDVLVGFCRLRFPNDPVRRELQDAAIVRELHVYGNAVGVGQEGDDEDHQHKGYGKKLLEKAEVLARDAGFPKLAVISGIGVRQYYREKLGYKQDGPYVSKRL | not soluble
MRVGLVHGFLSRRYLDFWRAYLEALGVEVVEAAPPPSDLPFCLPVQRLLAQVEALKEAGVDYLLLPDLQGGVESERGGGQCPWLLDLEAALLRYFPGLPPVLKVPAELSERVLGRAGEVGQLLVRNPMLVGRALDRTRRLLKPPPPLPTPQGSVGVVAQPYLLEEPAFRREVEAALRAHGLEAYFPDLPPERLREEADRLLPVDLPTDRELVGAIHYLGRLGRVKGLALVVSYACPPIPGLMRKAARRLGKPYRLLTLGEDWQEPLAALKAEMEKGNRGG | soluble
GPGSNYTFSMRATLDDPDVQNGITQGDRQQIQDAVNAASSWLEKNREATKEEYMEQTKLIEGIAHPILSEFYKKRVMEAPPSAGPKDGAPSDEVPHAEDVD | soluble
MFSIQQPLLVFSDLDGTLLDSHSYDWQPAAPWLTRLREANVPVILCSSKTSAEMLYLQKTLGLQGLPLIAENGAVIQLAEQWQEIDGFPRIISGISHGEISLVLNTLREKEHFKFTTFDDVDDATIAEWTGLSRSQAALTQLHEASVTLIWRDSDERMAQFTARLNELGLQFMQGARFWHVLDASAGKDQAANWIIATYQQLSGKRPTTLGLGDGPNDAPLLEVMDYAVIVKGLNREGVHLHDEDPARVWRTQREGPEGWREGLDHFFSAR | soluble
MAHHHHHHMHRGPGKRQTAPKEAAQYQFIKKWDLQMRETWDELEPFKGLPKPKVQFGNEAAEVIWPYALLLENVIKVHPYTKSIYVYYSQRQSTPLGELAARVAKRVSQAYLIPITFHNSHVYVEAEMLLEYSETPWVVVHCLDGTHKLIPVKPQAGQTVKEGAEEVLNGIVSACNEIGSAVKNPKEVMRLLSERPLQNQYVRVNYQWYGDTPEERMSHLVKWDYEPEEVVPQLRNRTQHVLDWMNYDGNLPTHNSVRVNIHREAARMRKPNVSAGPKTFFNSSGSRANARTARFDNSRSSQS | not soluble
MAHHHHHHMSTNINEEKCLEGDDIKYEKPDTHKNFWKSFGLNNEAGKLLYHLYGESNKIKPNILSSKHDGDKNKNDKKKEDAKLNTTYRKPQIHYPSLKKKAVKENPIDTIKHRKPLSKILEETQNYDCIKDIPISIGMNRETEKNKLHNIFVEEKCLMVPPSCAPMILTQEEKKEIIEKAQQRYIYINEENKSREEKHIQALRNYKLELIQELNEKRKLLQDIINEDKNIQGNISINQSDKRVSNKGNSYNIIQIKNDIEQCQKSIKKIEDNLNTYE | not soluble
SLHEFGITQNIVAIVTEHAKGAKVQRVLLEIGKLSAIMPDAIRFCFDICTQGTVLEGATLEILEIPGLGRCRQCGGEIYLDKPFGICNCGSVQLDLITGEELKIKEIEIEELCV | soluble
MIAITGATGQLGQHVIENLLKTTPASHLVAIVRNPKKAAPLSQRGIAVRQADYANEAALTTALQGVDKLLLISSSEVGQRTAQHRNVIQAAIAAKVKFIAYTSLLHADKSPLALADEHIETEKMLAESGIPHTLLRNGWYTENYLASVPAALKHGVFIGAAGEGKIASAMRADYAAAAARVIREEGHAGNVYELAGDDAWTLSQLADELTHQSGKKIVYQNLSEVDFAAALKGAGLPDGLADMLANSDAGAAKGGLFDDSHTLRKLIGRPTTTLTESLRSVL | not soluble
GVEITEGVTVTAKGNTEGNTADLAIDGDLSTYWESSNDYKWIEVDLGGIYELSKIEIFNKDEAVYKYNIYASEDGENFNKIAYKNNDNVSDSNGNMHTIDNVRAGKIRIDVVQNSNSDRVNIAEINVFGKNTGESLPEVKKIATSNFSETPWATEYEKFNSDSAYANEKTLNEIKNLVGRVIGREFKDKFIFEIRDQLNGNDVFEVSDSGDGKVLIKGNNGVSLASGFNYYLKNYCNVSYNPIMGSNLKMPETMPSVGERVVIDTPYEHRYALNFCTYSYTMSFWDWDQYEEFLDWCAMNGVNLVLDIIGQEEVLRRTLNEFGYSDEEVKEFISGPAYFAWFYMQNMTGFGGPLPNDWFEQRAELGRKMHDRMQSFGINPVLQGYSGMVPRDFKEKNQEAQTISQGGWCGFDRPDMLKTYVNEGEADYFQKVADVFYEKQKEVFGDVTNFYGVDPFHEGGNTGDLDNGKIYEIIQNKMIEHDNDAVWVIQNWQGNPSNNKLEGLTKKDQAMVLDLFSEVSPDWNRLEERDLPWIWNMLHNFGGRMGMDAAPEKLATEIPKALANSEHMVGIGITPEAINTNPLAYELLFDMAWTRDQINFRTWTEDYIERRYGKTNKEILEAWNIILDTAYKKRNDYYQGAAESIINARPGFGIKSASTWGHSKIVYDKSEFEKAIEIFAKNYDEFKDSDAFLYDFADILKQLLANSAQEYYEVMCNAYNNGNGEKFKFVSGKFLELIKLQERVLSTRPEFLIGNWIEDARTMLKDSDDWTKDLFEFNARALVTTWGSRNNADGGGLKDYSNRQWSGLTEDYYYARWEKWINGLQAELDGGAKAPNIDWFKMEYDWVNKKSDTDKLYPTEASNENLGELAKIAMESYSVTNMDKILGENES | soluble
SPLLLYTCLLWLPTSGLWTVQAMDPNAAYVNMSNHHRGLASANVDFAFSLYKHLVALSPKKNIFISPVSISMALAMLSLGTCGHTRAQLLQGLGFNLTERSETEIHQGFQHLHQLFAKSDTSLEMTMGNALFLDGSLELLESFSADIKHYYESEVLAMNFQDWATASRQINSYVKNKTQGKIVDLFSGLDSPAILVLVNYIFFKGTWTQPFDLASTREENFYVDETTVVKVPMMLQSSTISYLHDAELPCQLVQMNYVGNGTVFFILPDKGKMNTVIAALSRDTINRWSAGLTSSQVDLYIPKVTISGVYDLGDVLEEMGIADLFTNQANFSRITQDAQLKSSKVVHKAVLQLNEEGVDTAGSTGVTLNLTSKPIILRFNQPFIIMIFDHFTWSSLFLARVMNPV | soluble
MSLKKEGDATAVLIGYPSVGKSTLLNKLTGAKSEVADYDFTTLKPVPGILNYKGASIQIIDVPGIIEGAASGRGRGKEVISAVRVADLIIIVADVFNLHTIDIVKRELYEGGIRLDQKPPDVVIRKKERGGVRISSTVPLSIDEATITSVLKEYKIHSADVVIREDITIERLIDALAGNRVYIPSLTVVNKIDLMDVDVADAIKVSAEKGINLDLLKEQIYRKLEFIRVYLKPPGGKVDFSEPMILRRGATVEDICRKLHRDFVENFRYAKVWGKSVKFDGQRVGLEHVVEDGDIITIYAEGHHHHHH | soluble
MGSDKIHHHHHHMANFIEKITYLGTPAIKAGNEHLEMIVVPEWGSNVISLVDKTTNVQLLREPETAESFHDTPTLYGIPILFPPNRISDGTFSFRGRTYHFDINEKDKHNHLHGFLYHEKWNVVTTKQTDEGVIVETEIDLSELPHVQKQFPHHAVVRMTYTIKENTLFKHATVMNKGKEAFPWGIGYHTTFIFPAESSLFSLTADQQWELDERLLPTGKLMDVPYKEALHEGMDLRHKQLDDVFLSSYQKRGGENQAVIYHQHAHISIIYKADEQFKHWVVYNADGKQGYLCPEPYTWVTNAVNLDLPSSLTGLQVLEPGEETTAKSSITIELNHQ | not soluble
NVQHQLAQFQQLQQQAQAISVQKQTVEMQINETQKALEELSRAADDAEVYKSSGNILIRVAKDELTEELQEKLETLQLREKTIERQEERVMKKLQEMQVNIQEAMKGAG | soluble
MTDIQDVISPKLAVAIANPIFPAVDSLLRSGRHISTEHLDNHAFLMDFQNELDGFYRRYNVELIRAPEGFFYLRPKATTLIARSVLSELEMLVGKVLCYLYLSPERLAQQGIFSTQEVYDELLNLADEGKLLKAVNQRSSGSDLDKQKLAEKVRAAIGRLRRLGMIQTVGEQNSGKFTISESVFRFGAEVRSGDDPLESQARLIRDGEAATPDSLALEKQAQLMENDTKSADEIDEEFDGEQELEHHHHHH | soluble
MLMFTEKEFAAFEVAGLDERMAVIRAQIQPIFQELDTYFAEQLAPELGTELFVHIAQHRRRTVYPPENTWSALSPNKRGYKMQPHFQLGIWGDYVFMWLSFIDNPKNEKQIAQAFLENQQLFQALPEDTYVSLDHTVPQITPLPETDLEKALTRFRDVKKGEFEIGRIIPKDSDLWQNPEKARAYMLATYQQLLPLYQLAVAQ | not soluble
MGSDKIHHHHHHMIKSKLKGFAAVTVACLAVTACGSDSNNEDGTDQNATYVQFYNASAGSTATALKVADKTYESVIYGDTMPRFTSTAGVSAIEVMAKDASDKDISIYKEDIDLKVATDHFFVLHGDFAEPKLLNINYSRTELDKLNEVAENSKMQLLIANTAVHAQAFDAYVSKSTQTFADAVMLGSVAYGEASQPQVMDTGEYKVYLTPAGTTNVSYTTANIKFSAKVPYKLIIREGFGASDSKITLDSVDSTTNVRNHVALEASVDYRVFNGLGSHIIDVKVASSKQETLFSEVPSFGVTAYQGAEFNDFGVSVFDHGTQNKLLDNVLITLNQDDIKTIFIYEQATEQGSQVKAMEMKQTQTPSPYSFKFDIVSFADKSNLTVYFLKANDTIETAVNKITAVNPASPQSVTVPAGEYSIKVIAVENGTKTVVYASDLMDFSNEDNVTMVLNKDPATSFGYNLIKI | not soluble
MGSDKIHHHHHHMEEFVFFIEGNVNHPLTIDPTVWIFDERKVDLTTYFQELATKEDEMTAYKKAISKQWDKEITKGSEPPRPDTNGNVIKYEKQKLIHGSFGMPFMPFLKNSEPDSDAKTVTVVCADGNEHSFPIDEAAQFILGFAKNGSPLREDGPVHVYFGDGSNESTPIINVIRFSVS | not soluble

Source: the DeepSol protein solubility set
